Measured values: paper doi:10.1101/2022.11.20.517256 (bioRxiv, 2022)

Target: the molecule itself
Assay: cryo-EM structure

B1: Erwinia ligand-gated ion channel (ELIC), wild type (natural protein)
chain: APADNAADARPVDVSVSIFINKIYGVNTLEQTYKVDGYIVAQWTGKPRKTPGDKPLIVENTQIERWINNGLWVPALEFINVVGSPDTGNKRLMLFPDGRVIYNARFLGSFSNDMDFRLFPFDRQQFVLELEPFSYNNQQLRFSDIQVYTENIDNEEIDEWWIRKASTHISDIRYDHLSSVQPNQNEFSRITVRIDAVRNPSYYLWSFILPLGLIIAASWSVFWLESFSERLQTSFTLMLTVVAYAFYTSNILPRLPYTTVIDQMIIAGYGSIFAAILLIIFAHHRQAMGVEDDLLIQRCRLAFPLGFLAIGCVLVIRGITL
stoichiometry N: 5
